Test results as given in US9163032B2, “Esters of DCPLA and methods of treatment using the same” (Blanchette Rockefeller Neurosciences Institute, priority 2011, dated 2015).

Key:
[1] = system: primary human cortical neurons; assay: 40 day culture of human primary cortical neurons: survival, synapses, branching; format: cell-based; details: 100 nM
Method: To examine the effects of PKC-ε activation, cultured human cortical neurons in serum-free artificial medium were exposed to 100 nM DCPLA-ME added every three days, along with 50% medium replacement, for 40 days. More specifically, human primary cortical neurons were grown in Neuronal Medium (ScienCell Cat No#1521) containing neuronal growth supplement (NGS) (Sciencell Cat No#1562).
Cells were plated on poly-l-lysine (0.001%) coated plates at a density of >10000 cells/cm2. Half of the media was replaced by new media every 3 days. DCPLA-ME was dissolved in 100% ethanol and added at 100 nM final concentration. Fresh DCPLA-ME (100 nM) was added every 3 days during media change. The experiments were continued for 40 days.
Human primary neurons (ScienCell Research Laboratories, USA) were thawed and plated on poly-L-lysine coated plates at a density of 10,000 cells per cm^2 and were maintained in neuronal medium (DMEM+high glucose+neuronal growth supplement, ScienCell Research Laboratories, USA) following the recommended method. Primary human neurons were then treated with either DCPLA-ME (100 nM) or bryostatin 1 (0.27 nM) for 40 days. Fresh drug was added every third day with 50% media change.

[2] = system: Phosphatidylserine (C2) Binding Site; assay: 3H-DCPLA-ME binding to rat brain slices with C1 and C2 competitors (film-autoradiography)
Method: To determine the binding site of DCPLA-ME, ^3H-DCPLA-ME was incubated with rat brain slices in the absence and presence of known C1 and C2 competitors. More specifically, rat brain sections were fixed with formaldehyde, sliced, and incubated with (1)^3H-DCPLA-ME alone; (2)^3H-DCPLA-ME with DCPLA; (3)^3H-DCPLA-ME with Phorbol ester; or (4)^3H-DCPLA-ME and Bryostatin 1. After incubation, the slices were washed with a buffer made of 130 mM NaCl, 5 mM MgCl, 5 mM KCl, 1 mM EGTA, and 0.1% bovine serum albumin in 10 mM HEPES-NaOH, pH 7.4, dried, and analyzed with film-autoradiography.

[3] = system: rat primary hippocampal neurons; assay: Neurotoxic effect of Aβ1-42 oligomers, MTT viability assay; format: cell-based; details: 20 hr
Method: Amylospheroids (ASPDs) and Aβ monomers were prepared following Hoshi, M., et al. (2003) Proc Natl Acad Sci USA 100, 6370-6375, and Noguchi, A., et al. (2009) J Biol Chem 284, 32895-32905. Briefly, Aβ1-42 was dissolved in 1,1,1,3,3,3-hexafluoro-2-propanol and incubated overnight at 4° C. and then 3 hr at 37° C. The dissolved Aβ1-42 was then lyophilized in 1.5 ml polypropylene centrifuge tubes at 40 nmol/tube concentration. For preparing the ASPDs, the lyophilized Aβ was dissolved in phosphate buffered saline (PBS) without Ca^2+ or Mg^2+ at less than 50 μM concentration and rotated for 14 hr at 4° C. After incubation, the Aβ solution was purified using a 100 kDa molecular mass cutoff filter (Amicon Ultra, Millipore) and the high-molecular weight fraction was saved to obtain the most toxic ASPDs. Aβ derived diffusible ligands (ADDLs) were produced as previously described. See Lambert, M. P et al., Proc. Natl. Acad. Sci. USA, 1998, 95: 6448-6453. Briefly, Aβ1-42 was solubilized at 5 mM in dimethyl sulfoxide, diluted to 100 μM in F12k medium and was incubated at 4° C. for 24 hr. The solution was centrifuged at 14000×g for 10 min at 4° C. and the supernatant was used as the ADDLs.
(§1) Viability of cells was measured by MTT assay. MTT (i.e., 3-(4,5-dimethylthiazol-2-yl)-2,5-diphenyltetrazolium bromide) is a tetrazolium salt that is cleaved to formazan by the succinate dehydrogenase, which is only active in viable cells. After solubilization of the formazan, the amount of dye can be quantified with a microplate reader at 570 nm along with a reference of 630 nm. For the MTT assay, 5×10^4 primary rat hippocampal neurons from 18-day-old embryonic Sprague-Dawley rat brains or SH-SY5Y cells were plated on each well of 24-well plates coated with poly-D-lysine. After treatment, the cells were washed with 1× PBS and were incubated with 200 μl of 1 mg/ml MTT solution (Sigma, USA) at 37° C. for 2 hr. Then the MTT-solution was removed and the cells were lysed with 200 μl isopropanol containing 0.04 M HCl and […] for 10 min. Finally, the reading was taken at 570 nm and 630 nm. All the samples were done in triplicate and the data were represented as the percentage of control.
To assess the neurotoxic effect of different sized oligomers, rat primary hippocampal neurons were treated with variable concentrations of these Aβ1-42 species for 20 hr. Viability of the treated cells was compared to untreated cells using the MTT assay described above.

[4] = system: differentiated human SH-SY5Y cells; assay: Neuroprotection against ASPD, MTT assay, differentiated SH-SY5Y cells; format: cell-based; details: ASPD alone, compared to untreated cells
Method: For differentiation, SH-SY5Y cells were maintained in medium containing 2% serum and treated with 10 μM all-trans-retinoic acid (RA) for 72 hr. Thereafter, the cells were treated with 0.27 nM Bryostatin 1 for 72 hrs. The medium was changed every 3 days with fresh supplementation of RA.
as §1
In ASPD-treated cells, the viability was 77.15±0.49% (p<0.0001, n=6) compared to the untreated cells.

binding site [2]	3H-DCPLA-ME binding, 30 nM competitor ([2]; 30 nM competitor, rat brain slices) [%]	3H-DCPLA-ME binding, 1 μM competitor ([2]; 1 μM competitor, rat brain slices) [%]	Compound	number of synapses ([1]; 30 day old neurons)	Expression levels of PKCε, PSD-95 and synaptophysin ([1]; 40 days, compared to control or bryostatin 1-treated cells)	Viability of primary neuron ([3]; 0.5 nM)	Viability of primary neuron ([3]; 1 nM)	Viability of primary neuron ([3]; 2 nM)	Viability of primary neuron ([3]; 5 nM)	Viability of primary neuron ([3]; 10 nM)	Viability of primary neuron ([3]; 50 nM)	Viability of primary neuron ([3]; 50 nM, listed as ASPDs)	Viability of primary neuron ([3]; 500 nM)	viability of SH-SY5Y cells [4] [%]
phosphatidylserine (C2) site	64	37	CCCCCC1CC1CC1CC1CCCCCCCC(=O)OC (centres unmarked) [DCPLA-ME, DCPLA methyl ester]	significantly increased	significantly higher									
			ASPD: Amylospheroids from Aβ1-42, 100 kDa filter retentate, containing 39 monomers on average			96.12 ± 0.733 % of control	89.64 ± 5.99 % of control	87.75 ± 0.94 % of control	70.95 ± 1.89 % of control	68.68 ± 0.84 % of control	57.55 ± 3.35 % of control	57.1±4.9 % of control	52.94 ± 3.75 % of control	77.15±0.49
